Reference: patent US20220235344A1, “TRYPSIN VARIANTS WITH IMPROVED ENZYMATIC PROPERTIES” (BIOPHARMA TRANSLATIONSINSTITUT DESSAU FORSCHUNGS GMBH, priority 2018, published 2022)
Numbering of substitutions follows the chain as printed. Names may count otherwise.

B1: Trypsiligase II variant A2C8 (protein)
chain: IVGGYTCQENSVPYQVSLNSGHFFCGGSLINDQWVVSAAHCHESRIQVRLGEHNINVLEGNEQFVNAAKIIKHPNFDEDTFNNDIMLIKLSSPVKLNARVATVALPSSCAPAGTQCLISGWGETLSSGVNYPDLLQCLDAPLLPQADCEASYPGKITDNMVCVGFLEGGKKVCAGDSGGPVVCNGELQGIVGWGYQCTLPDNPGVYTKVCNYVDWIQDTIAAN
B2: Trypsiligase I (trypsin variant K60E/N143H/E151H/D189K) (protein)
chain: IVGGYTCQENSVPYQVSLNSGYHFCGGSLINDQWVVSAAHCYESRIQVRLGEHNINVLEGNEQFVNAAKIIKHPNFDRKTLNNDIMLIKLSSPVKLNARVATVALPSSCAPAGTQCLISGWGHTLSSGVNHPDLLQCLDAPLLPQADCEASYPGKITDNMVCVGFLEGGKKSCQGDSGGPVVCNGELQGIVSWGYGCALPDNPGVYTKVCNYVDWIQDTIAAN
B3: Trypsiligase I variant 2G10 (protein)
chain: B2 chain with H23P, A38S, K79D, L81F, Q174E
B4: Trypsiligase I variant 1C11 (protein)
chain: B2 chain with R78V, L81F, S192G, G196S, A198G
B5: wild-type trypsin: mature anionic rat trypsin II from Rattus norvegicus, SEQ ID NO: 1 (protein)
chain: B2 chain with E43K, H123N, H131E, K171D
modifications: Rat anionic trypsin II

Legend:
H-RAHAK(DNP)-OH = molecular target: T1, H-RAHAK(DNP)-OH
T1 chain: RAHAK

H-RHAK-OH = molecular target: T2, H-RHAK-OH
T2 chain: RHAK

[1] = test system: Bz-AAYRHAAG-OH (acyl donor) / H-RHAK-OH (acyl acceptor); experiment: Model transamidation reaction, Trypsiligase I and improved variants (Example 1); type: biochemical; details: for kcat, HL^app (mkat/mol) / kcat,AL^app, apparent turnover rate for aminolysis (head is formula image MATH:00001) / product yield (%): 250 μM Bz-AAYRHAAG-OH, 500 μM H-RHAK-OH, 0.1 mM ZnCl2, pH 7.8, 30° C.; for product yield (%): 5-10 μM trypsin variant; for kcat, AL^app/kcat, HL^app: 250 μM acyl donor, 500 μM acyl acceptor, 0.1 mM ZnCl2; for Km: constant acyl donor concentration, varying acyl acceptor concentrations
Description: Peptide and reaction analytics were performed using a Waters ACQUITY UPLC System equipped with an RP-C18 column (ACQUITY UPLC BEH 130, C18, 1.7 μm, 2.1×100 mm) at flow rates of 0.5 ml/min. The used mobile phases are: water with 0.05% TFA (A) and acetonitrile with 0.05% TFA (B), respectively. For analysis two methods were applied: Method I: linear gradient of 5-40% B in 5 min, detection at 254 nm.
Quantities of product and educt were calculated from the integrated peak areas.
The measurements of the product yield and the apparent tumover rates for aminolysis (kcat,AL^app) and hydrolysis (kcat,HL^app) were performed by a model transamidation reaction with the following conditions: 250 μM Bz-[…]-OH (acyl donor), 500 μM H-RHAK-OH (acyl acceptor), 5-10 μM trypsin variant, 100 mM HEPES/NaOH pH 7.8, 0.1 mM ZnCl2, 100 mM NaCl, 10 mM CaCl2, T=30° C. KM values for the acyl acceptor were determined by the measurements of apparent turnover rates for aminolysis at constant acyl donor concentration and varying acyl acceptor concentrations.

[2] = test system: Bz-AAYRHAAG-OH (acyl donor) / H-RHAK-OH (acyl acceptor); experiment: Model transamidation reaction at low substrate concentration, Trypsiligase I, 2G10, 1C11, hybrid (Example 2); type: biochemical; details: for product yield (%): 15 μM Bz-AAYRHAAG-OH, 30 μM H-RHAK-OH, 0.5-2.1 μM trypsin variant, 0.1 mM ZnCl2, pH 7.8, 30° C.; for kcat, AL^app (mkat/mol) / kcat, AL^app/kcat, HL^app / kcat, HL^app (mkat/mol): 15 μM acyl donor, 30 μM acyl acceptor, 0.1 mM ZnCl2
Description: FIG. 1: Time course of product formation for a transamidation reaction catalyzed by Trypsiligase I as well as the improved variants 2G10, 1C11 and the hybrid variant. Reaction conditions: 15 μM Bz-[…]-OH (acyl donor), 30 μM H-RHAK-OH (acyl acceptor), 0.5-2.1 μM trypsin variant, 100 mM HEPES/NaOH pH 7.8, 0.1 mM ZnCl2, 100 mM NaCl, 10 mM CaCl2, T=30° C. UPLC analysis: Waters Acquity Ultra Performance LC, C18-column, gradient 5-40% acetonitrile, 4 min, detection at 254 nm.
The measurements of the product yield and the apparent tumover rates for aminolysis (kcat,AL^app) and hydrolysis (kcat,HL^app) were performed by a model transamidation reaction with the following conditions: 15 μM Bz-[…]-OH (acyl donor), 30 μM H-RHAK-OH (acyl acceptor), 0.5-2.1 μM trypsin variant, 100 mM HEPES/NaOH pH 7.8, 0.1 mM ZnCl2, 100 mM NaCl, 10 mM CaCl2, T=30° C.

[3] = test system: Bz PGGXaaXaaXaaHAG-OH / H-XaaXaaXaaAK(DNP)-OH (recognition sequences YRRH, YMKH, RMKH); experiment: Time course of transamidation by A2C8_H39Y/H59Y/E60K/K189D and wild-type trypsin (FIG. 5); type: biochemical; details: recognition sequences YRRH, YMKH and RMKH; 10 μM variant or 2.5 nM anionic rat trypsin II
Description: FIG. 5: Time course of the product formation for a transamidation reaction catalyzed by the variant A2C8_H39Y/H59Y/E60K/K189D as well as the wild-type Trypsin in correlation to various peptide substrates. Reaction conditions: 100 μM acyl donor (Bz PGGXaaXaaXaaHAG-OH), 200 μM acyl acceptor (H-XaaXaaXaaAK(DNP)-OH), 10 μM trypsin variant A2C8_H39Y/H59Y/E60K/K189D or 2.5 nM anionic rat trypsin II, 100 mM HEPES/NaOH pH 7.8, 0.1 mM ZnCl2, 100 mM NaCl, 10 mM CaCl2, T=30° C. UPLC analysis: Waters Acquity Ultra Performance LC, C18-column, gradient 5-60% acetonitrile, 5 min, detection at 360 nm.
The three substrates with the highest apparent turnover rate for the aminolysis reaction were then used for investigating the synthesis behavior of variant A2C8_H39Y/H59Y/E60K/K189D. In FIG. 5 the time course of product formation for a transamidation reaction catalyzed by variant A2C8_H39Y/H59Y/E60K/K189D with various peptide substrates is illustrated.

Molecule	KM, acyl acceptor (µM); zinc ions (100 µM): no; transamidation with 250 µM Bz-PGGYRAHAG-OH as acyl donor (H-RAHAK(DNP)-OH) [µM]	fold improvement of KM of the nucleophilic peptide against Trypsiligase II in the absence of zinc ions (H-RAHAK(DNP)-OH)	fold improvement of KM of the nucleophilic peptide against Trypsiligase II in the presence of zinc ions (H-RAHAK(DNP)-OH)	KM, acyl acceptor (µM); transamidation with Bz-AAYRHAAG-OH as acyl donor, 0.1 mM ZnCl2 (H-RHAK-OH) [µM]	affinity for the nucleophilic substrate compared to Trypsiligase I [1]	kcat, HL^app (mkat/mol) [1] [mkat/mol]	kcat,AL^app, apparent turnover rate for aminolysis (head is formula image MATH:00001) [1]	product yield (%) [1] [%]	kcat, AL^app/kcat, HL^app [1]	Km [1] [µM]	increase for the ratio of aminolysis to hydrolysis activity (factor) ([1]; versus Trypsiligase I)	enzyme kinetic analyses (worded result) (H-RHAK-OH)	product yield (%) [2] [%]	kcat, AL^app (mkat/mol) [2] [mkat/mol]	kcat, AL^app/kcat, HL^app [2]	kcat, HL^app (mkat/mol) [2] [mkat/mol]	aminolysis activity lowered by factor ([1]; versus Trypsiligase I)	product formation [3]
B1	17.6	by a factor of 8 and 92 in the presence or absence of zinc ions, respectively	by a factor of 8 and 92 in the presence or absence of zinc ions, respectively															
B2				222														
B3				23	strongly increased affinity for the nucleophilic RH substrate	2.5	65.1	59.3	26.0	23	6	shows a strongly increased affinity for the nucleophilic RH substrate compared to the initial enzyme Trypsiligase I	39.6	16.39	3.3	5.03		
B4				> 5000	An improved affinity for the nucleophile could not be shown	0.3	16.0	60.9	57.0	> 5000	13	An improved affinity for the nucleophile could not be shown for this variant.	53.9	6.24	6.4	0.97	3	
B5																		Nearly no product formation
